Assay results reported in publication PMC3167946.

Target: Envelope glycoprotein gp120Bal (HIV-1 isolate Bal)
Test: ELISA

Substance | EC50
human germline HV control scFv (human germline b12 HV recombined with human mature b12 D(J)-segments and VL) | 24.1 nM
macaque germline HV control scFv (macaque germline b12 HV recombined with human mature b12 D(J)-segments and VL) | 2500 nM
